From patent publication US20240082414A1 (Eli Lilly, published 2024)
Numbering of substitutions follows the chain as printed.

B1: anti-human TNFα antibody Ab3 (antibody, human IgG1, kappa, V domains shown)
VH: QVQLVQSGAEVKKPGASVKVSCKASGYTFTGYYMHWVRQAPGQGLEWMGWINPYTGGTKYAQKFQGRVTMTRDTSISTAYMELSRLRSDDTAVYYCARDLYGSSNYGMDVWGQGTTVTVSS
VL: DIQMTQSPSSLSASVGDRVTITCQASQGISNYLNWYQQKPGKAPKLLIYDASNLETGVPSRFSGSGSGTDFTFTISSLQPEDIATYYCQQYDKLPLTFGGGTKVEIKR
notes: Human IgG1; expressed in CHO cells
B2: anti-human TNFα antibody Ab1 (antibody, human IgG1, kappa, V domains shown)
VH: B1 VH with M34I, K59N, M108G
VL: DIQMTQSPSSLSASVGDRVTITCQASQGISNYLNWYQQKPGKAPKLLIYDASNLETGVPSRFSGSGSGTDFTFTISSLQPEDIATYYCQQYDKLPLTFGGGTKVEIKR
notes: Human IgG1 with engineered cysteines at heavy chain positions 124 and 378 (EU numbering); expressed in CHO cells; also called anti-human TNFα Ab1; unconjugated anti-human TNFα Ab1
B3: anti-human TNFα antibody Ab2 (antibody, human IgG1, kappa, V domains shown)
VH: B1 VH with M34I, K59N
VL: not shown
notes: as for B1
B4: anti-human TNFα antibody Ab5 (antibody, human IgG1, kappa, V domains shown)
VH: B1 VH
VL: DIQMTQSPSSLSASVGDRVTITCQASQGIRNYLNWYQQKPGKAPKLLIYDASNLETGVPSRFSGSGSGTDFTFTISSLQPEDIATYYCQQYDKLPLTFGGGTKVEIKR
notes: as for B1
B5: anti-human TNFα antibody Ab4 (antibody, human IgG1, kappa, V domains shown)
VH: B1 VH
VL: not shown
notes: as for B1
B6: anti-human TNFα antibody Ab6 (antibody, human IgG1, kappa, V domains shown)
VH: B1 VH with M34I, K59N, L100I, M108G
VL: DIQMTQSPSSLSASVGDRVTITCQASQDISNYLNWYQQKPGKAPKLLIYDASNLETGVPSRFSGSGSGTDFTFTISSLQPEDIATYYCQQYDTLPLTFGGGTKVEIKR
notes: Human IgG1

molecular target: T1, human TNFα (recombinant, soluble) (human, UniProt P01375 77-233); assay: antigen-down ELISA, plate coated with human TNFα
T1 construct: the limits of the soluble protein used (Syngene for the ELISA); also called soluble human TNFα; human TNFα (Syngene)
Protocol: (§1) Example 2a. […] Briefly, 384-well high binding plates (Greiner Bio-one #781061) were coated with 20 μL per well of 1 μg/mL of human TNFα (Syngene), 2 μg/mL of rhesus macaque TNFα (R&D Systems, Cat# 1070-RM), or 2 μg/mL of canine TNFα (R&D Systems, Cat# 1507-CT/CF) diluted in carbonate buffer pH 9.3 (0.015 M Na₂CO₃ and 0.035 M NaHCO₃) and stored at 4° C. overnight. […] The plates were incubated at 37° C. for 90 min, then washed three times in PBS/0.1% Tween. 20 μL of secondary antibody reagent goat-anti-human-kappa-AP (Southern Biotech, Cat# 2060-04) with 1:1500 dilution was added to the plate and incubated for 45 minutes at 37° C. Plates were washed 3 times as above, and 20 μL of alkaline phosphatase substrate solution diluted to 1:35 in molecular grade water was added to every well. Once the color developed (approximately 15-30 min), plates were read at 560 nm OD on a Molecular Device Spectramax plate reader and data was acquired using Softmax Pro 4.7 software. Data analysis was performed in GraphPad Prism.

T1 sequence (P01375 77-233 limits assumed): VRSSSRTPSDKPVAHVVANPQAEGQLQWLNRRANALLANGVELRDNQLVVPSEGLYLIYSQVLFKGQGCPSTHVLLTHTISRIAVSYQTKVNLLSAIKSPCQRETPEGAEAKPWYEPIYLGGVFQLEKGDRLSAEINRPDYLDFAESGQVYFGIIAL

| EC50 | Binder |
| --- | --- |
| 0.216 µg/mL | B1 |
| 0.223 µg/mL | B2 |
| 0.222 µg/mL | B3 |
| 0.22 µg/mL | B4 |
| 0.213 µg/mL | B5 |
| 0.131 µg/mL | B6 |

molecular target: TNFα expressed on human monocyte-derived dendritic cells (human, UniProt P01375 1-233); assay: cell-based or functional assay
Sequence (P01375 whole entry): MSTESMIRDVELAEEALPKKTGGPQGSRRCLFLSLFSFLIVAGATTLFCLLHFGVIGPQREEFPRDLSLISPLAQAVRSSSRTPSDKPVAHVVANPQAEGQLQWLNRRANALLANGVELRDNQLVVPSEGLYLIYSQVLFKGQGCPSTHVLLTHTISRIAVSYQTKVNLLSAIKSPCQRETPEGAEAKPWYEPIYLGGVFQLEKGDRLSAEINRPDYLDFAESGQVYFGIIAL

| Immature Dendritic Cell Internalization Index | Mature Dendritic Cell Internalization Index | Binder |
| --- | --- | --- |
| 20 | 35.2 | B1 |
| 19.4 | 26.7 | B2 |
| 21.9 | 38.3 | B3 |
| 54.6 | 52.7 | B4 |
| 33.6 | 43.1 | B5 |

molecular target: T1, human TNFα (recombinant, soluble); assay: cell-based or functional assay

| Inhibition of soluble human TNFα induced apoptosis IC50 (L929 cells) | Binder |
| --- | --- |
| 0.089 µg/mL | B2 |

molecular target: T2, rhesus macaque TNFα (rhesus macaque, UniProt P48094 77-233); assay: antigen-down ELISA, plate coated with rhesus macaque TNFα
T2 construct: Bought protein; also called rhesus macaque monkey TNFα (R&D Systems, Cat# 1070-RM)
Protocol: as §1

T2 sequence (P48094 77-233 limits assumed): as the sequence (P01375 77-233 limits assumed) above, with R44T, T72N, R138L counted along it

| EC50 | Binder |
| --- | --- |
| 0.141 µg/mL | B1 |
| 0.156 µg/mL | B2 |
| 0.162 µg/mL | B3 |
| 0.161 µg/mL | B4 |
| 0.144 µg/mL | B5 |
| 0.115 µg/mL | B6 |

molecular target: T3, canine TNFα (canine, UniProt P51742 77-233); assay: antigen-down ELISA, plate coated with canine TNFα
T3 construct: Bought protein; also called Canine TNFα (R&D Systems, Cat# 1507-CT/CF)
Protocol: as §1

T3 sequence (P51742 77-233 limits assumed): as the sequence (P01375 77-233 limits assumed) above, with R2K, Q21E, N30S, R44T, V49I, E53D, I83F, A109T, R138L, D140N counted along it

| EC50 | Binder |
| --- | --- |
| 0.24 µg/mL | B1 |
| 0.22 µg/mL | B2 |
| 0.24 µg/mL | B3 |
| 0.176 µg/mL | B4 |
| 0.231 µg/mL | B5 |
| 0.162 µg/mL | B6 |

molecular target: T1, human TNFα (recombinant, soluble); assay: antigen-down ELISA, plate coated with human TNFα; remark: another data set of the same source
Protocol: as §1

| EC50 | Binder |
| --- | --- |
| 0.28 µg/mL | B2 |

molecular target: T1, human TNFα (recombinant, soluble); assay: cell-based or functional assay; remark: another data set of the same source

| Inhibition of soluble human TNFα induced apoptosis IC50 (L929 cells) | Binder |
| --- | --- |
| 0.19 µg/mL | B1 |
| 0.16 µg/mL | B2 |
| 0.13 µg/mL | B3 |
| 0.22 µg/mL | B4 |
| 0.19 µg/mL | B5 |

molecular target: membrane human TNFα (non-cleavable TNFα construct stably transfected into CHO cells) (human, UniProt P01375 1-233); assay: cell-based or functional assay

| Inhibition of membrane human TNFα-induced apoptosis IC50 (L929 cells) | Binder |
| --- | --- |
| 0.15 µg/mL | B1 |
| 0.13 µg/mL | B3 |
| 0.2 µg/mL | B4 |
| 0.13 µg/mL | B5 |
